Target: T1, PE-PilA fusion protein LVL-735 (Haemophilus influenzae)
T1 construct: also called PE-PilA drug substance; PE-PilA DS
T1 chain: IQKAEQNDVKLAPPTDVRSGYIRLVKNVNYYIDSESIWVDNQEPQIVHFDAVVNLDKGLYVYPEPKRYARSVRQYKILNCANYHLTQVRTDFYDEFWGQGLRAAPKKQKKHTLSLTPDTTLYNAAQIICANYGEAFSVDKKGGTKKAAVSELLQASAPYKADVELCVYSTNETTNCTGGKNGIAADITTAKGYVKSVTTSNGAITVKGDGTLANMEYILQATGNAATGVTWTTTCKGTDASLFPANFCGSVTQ
Assay: HDX-MS, antibody/antigen complex at molar ratio 1:1

B1: PEPilA/3 mAb (antibody, V domains shown)
VH: QGQLQQSGPELVKPGASVKMSCKASGYTFTDYVISWVKQRIGQGLEWIGEIHPGSGSIHYNEKFKGKATLTADKSSNTAYMQLSSLTSEDSAVYFCARRGLRRPWFAYWGQGTLVTVSA
VL: DIVLTQSPASLAVSLGQRATISCRASKSVSTSGYSYMHWFQQKPGQPPKLLIYLASNLESGVPARFSGSGSGTDFTLNIHPVEEEDAATYYCQHSRELPLTFGAGTKLELK
notes: Mouse anti-PilA monoclonal antibody; The isotype appears only as 'optionally an IgG2A' in an embodiment; It was biotinylated when used as detection antibody in the sandwich ELISA; also called mAb PEPilA/3; PilA mAb
- binding result: binds
